In the supplement of paper PMC9170038:

How the values were obtained:
MS2 coat protein [1] = assay: apparent KD of MS2 coat protein; higher = weaker reporter binding; details: Eterna round: R101
Protocol: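 RNA-MaP: designed FMN/MS2 RNA switches (84 nt design region) are transcribed on-chip within common flanks and titrated with SNAP-549-labelled MS2 coat protein (about 1-3000 nM) in 100 mM Tris pH 7.5, 80 mM KCl, 4 mM MgCl2, without or with 200 uM FMN. Median apparent KD per design; activation ratio = KD,OFF / KD,ON.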

MS2 coat protein [2] = assay: apparent KD of MS2 coat protein, switch OFF state (with FMN for OFF switches, without FMN for ON switches); designed switch direction (-1 OFF switch, 1 ON switch): 1; higher = weaker reporter binding; details: FMN input: 0 or 200 uM; Eterna round: R93 (includes R88 designs)
Procedure, shortened: (§1)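 Normalised binding curves from single clusters were fitted, and the median fit for each design is given as apparent KD. The clusters held designed RNA switches transcribed on-chip from Illumina sequencing clusters. These were titrated with SNAP-549-labelled MS2 coat protein (twofold steps from 0.7 or 1.5 nM to 3 µM, 0.8–1.5 h to 10–20 min per step) in 100 mM Tris-HCl pH 7.5, 80 mM KCl, 4 mM MgCl2, without or with constant ligand.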

MS2 coat protein [3] = assay: apparent KD of MS2 coat protein, switch ON state; designed switch direction (-1 OFF switch, 1 ON switch): 1; higher = weaker reporter binding; details: FMN input: 0 or 200 uM; Eterna round: R93 (includes R88 designs)
Procedure, shortened: as §1

Sequence | apparent KD of MS2 coat protein (MS2 coat protein [1]; input ligand: FMN 200 uM) [nM] | apparent KD of MS2 coat protein (MS2 coat protein [1]; input ligand: none) [nM] | apparent KD of MS2 coat protein (MS2 coat protein [2]) [nM] | apparent KD of MS2 coat protein (MS2 coat protein [3]) [nM]
UAUUAUAUAUAGAAGGACAUGAGGAUCACCCAUGUCGCCGGGCCCGGGAAACCGGGCCCGGCCAUGUAGGAUAUAUAUAUAGUA [#This is a good prank 9] (puzzle (switch architecture): Inverted Exclusion NG 2) | 7.72 | 5.35 | – | –
UUAUUAUGUGUAGGAUAUGCGUAUUAUUAUUAUGCAGAAGGACAUGAGGAUCACCCAUGUAUAUUAUUAUUAUAUAUUAUAUAU (puzzle (switch architecture): Exclusion NG 1) | 19.1 | 14.7 | – | –
UUAUAAUUAAGAGGAUAUAUACAACAUGAGGAUCACCCAUGUACCCAUGUAGUAGAAGGCUUAUUUUUAUAUAAUAAUAUAAUU [AstrosLoopssng1#9] (puzzle (switch architecture): Small Loop Same State NG 1) | 40 | 148 | – | –
CCUGCACCUCAAGGAUAUCCAGUCGUUUCGACUGGAGAAGGUGAGGAUCACCCACCUAGCCUGACGUUUGUCAGGCAUGCAGGU [#AddUracilToBrourdLoops 1 - Jieux - Exclusion NG1] (puzzle (switch architecture): Exclusion NG 1) | 49.5 | 27 | – | –
AGAAAACAUGAGGAUCACCCAUGUGAUAACAUGGGAGGAUAUACGAGGACGAUAGUCAAGGUAGAAGGCCUAAAGA [Garnet 71] | – | – | 32.1 | 97.3
AGAAAUAAAAGGCAGGAUAUCCAAAAAAAAACAUGAGGAUCACCCAUGUAAAAAAAAAAAAAAUGGGAGAAGGGCCAAAUAAAGA [Mat - Same State 2 - Eli mod - D88] | – | – | 37.5 | 16
AUAUAUAUAAGGUAGGAUAUACUAAAGUAAACAUGAGGAUCACCCAUGUAAAGAAAGAAACUCAUGUAGAAGGACCAUAUAUAUA [Original: 77%, More Tesla, 1] | – | – | 99.9 | 21.3
AAAAAACAUGAGGAUCACCCAUGUAAUACAACAUCAGGAUAUUGGCUUGACUAUGUCUUACAAGAAGGGAUGAAAA [Same State 1.3d (Same State 1 - Omei 2 )] | – | – | 81.5 | 30.5
GAAGACAUAGUUCAGGAUAUGGGAAUAGUCACAUGAGGAUCACCCAUGUGCAUUUAUAUGCGCGCUCAGAAGGGAGGUAGAUAUA [SameState2 Malc#19] | – | – | 33.5 | 21
UAUAGACAUGAGGAUCACCCAUGUAGAAUUAUGGGAGGAUAUACAAAGACGAGAGUCAGAGUAGAAGGCCUAGGAG [salish99-ss1-153] | – | – | 63.4 | 31.8
GAUAAACAUGAGGAUCACCCAUGUAGAUAUAUGGGAGGAUAUACAAAGACGAUAGUCAAAGUAGAAGGCCUAAAAG [77%, Mat - Mod of Eli - With 3 more U's] | – | – | 79.2 | 28.6
CUCAGGAAGAGAGAGGAUAUCCAAAGGAAAACAUGAGGAUCACCCAUGUAAAAGGUAGGAAAUUGGGAGAAGGCUCAAGAGAGAG [salish99-ss2-096] | – | – | 40 | 22.3
CAAUUGGCACAGAAGGGUGACAUGAGGAUCACCCAUGUAGCGUGGCAUUCAGGAAGAGCCACGCCACAGGAUAUGUGCGGGCAC [Rigeri] (puzzle (switch architecture): Inverted Same State NG 2) | 31.9 | 24.7 | – | –
AUAAUAAACUGUGAGGAUAUCCAUAAUAAAACAUGAGGAUCACCCAUGUGUAGAUAAUAAUAAUGGGAGAAGGCACAUAAUAAUA [Mat - Same state - Mayanna Mod - D102] | – | – | 26.2 | 19.6
AAAAUAAAAUAAAAGGAUAUAAAAUAAAAAACAUGAGGAUCACCCAUGUGAAAACAUGAAAAAAAAAAGAAGGAAAAAUAAAAAA [SS2: 76 No MS2] | – | – | 31.6 | 21.3
GGUACUCAAAGAGUACCAAUACGAACAUGAGGAUCACCCAUGUAGGAUAUGCUACUCAAAGAGUAGCAGAAGGACAUGUGCCUU [salish99_ExNG3_020 #endbits investigation] (puzzle (switch architecture): Exclusion NG 3) | 92.3 | 15.1 | – | –
AAAUAACUUGAAGGAUAUGACCCUCGAGGUGACUAAAAGUCACCUCGAGGGUCAGAAGGUCGAGGAUCACCCGACCUAGUGAAA [#SharedSequence SLExNG1: 7-1] (puzzle (switch architecture): Small Loop Exclusion NG 1) | 7.61 | 7.54 | – | –
